The values that follow come from patent US20190202921A1 (Five Prime, published 2019).

Numbering of substitutions follows the chain as printed. In names and notes the source's numbering stands.

Sequences and labels used below:
T1: mouse CSF1R ECD (mouse, UniProt P09581 20-515)
T1 construct: extracellular domain
T1 sequence (looked up): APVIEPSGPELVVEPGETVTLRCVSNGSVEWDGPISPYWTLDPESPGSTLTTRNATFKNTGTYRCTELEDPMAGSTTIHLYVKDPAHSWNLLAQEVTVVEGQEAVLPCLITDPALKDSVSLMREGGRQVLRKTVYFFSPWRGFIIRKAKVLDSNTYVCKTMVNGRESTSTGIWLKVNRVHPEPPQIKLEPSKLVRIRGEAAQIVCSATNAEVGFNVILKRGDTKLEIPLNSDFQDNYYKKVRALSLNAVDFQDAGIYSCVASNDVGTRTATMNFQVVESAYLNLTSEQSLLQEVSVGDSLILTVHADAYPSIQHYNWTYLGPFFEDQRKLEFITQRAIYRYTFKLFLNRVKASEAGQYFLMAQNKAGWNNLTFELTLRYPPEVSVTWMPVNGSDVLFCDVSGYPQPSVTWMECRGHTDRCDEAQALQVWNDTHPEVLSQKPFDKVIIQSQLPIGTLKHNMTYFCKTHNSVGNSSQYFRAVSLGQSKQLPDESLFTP

T2: cynomolgus monkey CSF1R ECD (cynomolgus monkey, UniProt P07333 20-505 (human entry))
T2 construct: also called cynoCSF1R ECD
T2 chain: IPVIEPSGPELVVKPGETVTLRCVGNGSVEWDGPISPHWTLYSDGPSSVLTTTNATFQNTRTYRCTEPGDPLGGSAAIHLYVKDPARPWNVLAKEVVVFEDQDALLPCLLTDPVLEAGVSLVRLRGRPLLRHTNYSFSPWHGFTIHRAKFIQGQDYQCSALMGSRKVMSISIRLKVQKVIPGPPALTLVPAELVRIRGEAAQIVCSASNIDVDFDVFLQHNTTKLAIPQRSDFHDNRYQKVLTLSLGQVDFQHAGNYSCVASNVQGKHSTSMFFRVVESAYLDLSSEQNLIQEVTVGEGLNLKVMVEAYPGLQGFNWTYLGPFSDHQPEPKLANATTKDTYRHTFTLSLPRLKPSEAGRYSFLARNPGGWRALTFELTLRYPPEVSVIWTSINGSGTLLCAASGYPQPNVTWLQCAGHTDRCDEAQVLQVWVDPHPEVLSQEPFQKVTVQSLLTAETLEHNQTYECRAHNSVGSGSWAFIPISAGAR

T3: rat PD-1 (rat, UniProt D3ZIN8 25-287)
T3 sequence: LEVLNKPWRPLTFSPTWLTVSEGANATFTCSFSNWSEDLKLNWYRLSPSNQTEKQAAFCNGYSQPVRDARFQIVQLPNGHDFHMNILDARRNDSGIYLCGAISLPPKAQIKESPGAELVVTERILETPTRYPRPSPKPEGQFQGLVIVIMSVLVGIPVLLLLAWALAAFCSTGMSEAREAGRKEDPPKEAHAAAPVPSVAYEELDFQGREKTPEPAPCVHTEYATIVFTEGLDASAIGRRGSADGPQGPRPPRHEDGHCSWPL

B1: huAb8 (antibody, human IgG4 S228P, kappa, V domains shown)
VH: QVQLVQSGAEVKKPGSSVKVSCKASGYTFSDFNIHWVRQAPGQGLEWMGYINPYTDVTVYNEKFKGRVTITSDKSTSTAYMELSSLRSEDTAVYYCASYFDGTFDYALDYWGQGTLVTVSS
VL: EIVLTQSPATLSLSPGERATLSCRASESVDNYGLSFMNWYQQKPGQAPRLLIYTASNLESGIPARFSGSGSRTDFTLTISSLEPEDFAVYYCQQSKELPWTFGQGTKVEIKR
notes: also called huAb 0302-L1H1; h0302-H1 / h0302-L1
B2: huAb13 (antibody, human IgG4 S228P, kappa, V domains shown)
VH: QVQLVQSGAEVKKPGSSVKVSCKASGYIFTDYNMHWVRQAPGQGLEWMGEINPNNGVVVYNQKFKGRVTITVDKSTSTAYMELSSLRSEDTAVYYCTRALYHSNFGWYFDSWGQGTLVTVSS
VL: B1 VL with R24K, E27Q, N31Y, Y32D, L34D, F36H, R72G, S95G, K96N, L98D
notes: also called huAb 0311-L0H1; h0311-H1 / h0311-L0
B3: huAb15 (antibody, human IgG4 S228P, kappa, V domains shown)
VH: B2 VH with R67T, V68T, I70L
VL: B1 VL with R24K, E27Q, N31Y, Y32D, L34D, F36H, R72G, S95G, K96N, L98D
notes: also called huAb 0311-L0H2; h0311-H2 / h0311-L0
B4: huAb7 (antibody, human IgG4 S228P, kappa, V domains shown)
VH: B1 VH
VL: B1 VL with R72G
notes: also called huAb 0302-L0H1; h0302-H1 / h0302-L0
B5: huAb16 (antibody, human IgG4 S228P, kappa, V domains shown)
VH: B2 VH with R67T, V68T, I70L
VL: DIVLTQSPATLSLSPGERATLSCKASQSVDYDGDSHMNWYQQKPGQAPRLLIYTASNLESGIPARFSGSGSGADFTLTISSLEPEDFAVYYCQQGNEDPWTFGQGTKVEIKR
notes: also called huAb 0311-L1H2; h0311-H2 / h0311-L1
B6: huAb10 (antibody, human IgG4 S228P, kappa, V domains shown)
VH: B1 VH with M48I, V68A, I70L
VL: B1 VL with R72G
notes: also called huAb 0302-L0H2; h0302-H2 / h0302-L0
B7: huAb14 (antibody, human IgG4 S228P, kappa, V domains shown)
VH: B2 VH
VL: B5 VL
notes: also called huAb 0311-L1H1; h0311-H1 / h0311-L1
B8: huAb9 (antibody, human IgG4 S228P, kappa, V domains shown)
VH: B1 VH
VL: B1 VL with L4V, Y40F
notes: also called huAb 0302-L2H1; h0302-H1 / h0302-L2
B9: huAb11 (antibody, human IgG4 S228P, kappa, V domains shown)
VH: B1 VH with M48I, V68A, I70L
VL: B1 VL
notes: also called huAb 0302-L1H2; h0302-H2 / h0302-L1
B10: huAb12 (antibody, human IgG4 S228P, kappa, V domains shown)
VH: B1 VH with M48I, V68A, I70L
VL: B1 VL with L4V, Y40F
notes: also called huAb 0302-L2H2; h0302-H2 / h0302-L2
B11: huAb2 (antibody, human IgG4 S228P, kappa)
heavy: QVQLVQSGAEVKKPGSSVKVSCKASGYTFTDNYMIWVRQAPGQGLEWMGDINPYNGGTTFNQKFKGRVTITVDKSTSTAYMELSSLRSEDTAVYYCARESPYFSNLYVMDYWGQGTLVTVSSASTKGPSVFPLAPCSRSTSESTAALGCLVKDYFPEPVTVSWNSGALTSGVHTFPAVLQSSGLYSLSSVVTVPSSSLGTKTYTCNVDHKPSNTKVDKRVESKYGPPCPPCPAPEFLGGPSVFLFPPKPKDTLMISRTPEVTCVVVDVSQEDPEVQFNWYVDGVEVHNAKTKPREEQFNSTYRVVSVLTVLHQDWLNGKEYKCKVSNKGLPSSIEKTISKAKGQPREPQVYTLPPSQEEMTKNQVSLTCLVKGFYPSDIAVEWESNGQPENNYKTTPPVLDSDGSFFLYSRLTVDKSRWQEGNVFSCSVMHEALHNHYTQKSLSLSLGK
light: EIVLTQSPATLSLSPGERATLSCKASQSVDYDGDNYMNWYQQKPGQAPRLLIYAASNLESGIPARFSGSGSGTDFTLTISSLEPEDFAVYYCHLSNEDLSTFGGGTKVEIKRTVAAPSVFIFPPSDEQLKSGTASVVCLLNNFYPREAKVQWKVDNALQSGNSQESVTEQDSKDSTYSLSSTLTLSKADYEKHKVYACEVTHQGLSSPVTKSFNRGEC
notes: also called huAb 0301-L0H1; h0301-H1 / h0301-L0
B12: huAb1 (antibody, human IgG4 S228P, kappa)
heavy: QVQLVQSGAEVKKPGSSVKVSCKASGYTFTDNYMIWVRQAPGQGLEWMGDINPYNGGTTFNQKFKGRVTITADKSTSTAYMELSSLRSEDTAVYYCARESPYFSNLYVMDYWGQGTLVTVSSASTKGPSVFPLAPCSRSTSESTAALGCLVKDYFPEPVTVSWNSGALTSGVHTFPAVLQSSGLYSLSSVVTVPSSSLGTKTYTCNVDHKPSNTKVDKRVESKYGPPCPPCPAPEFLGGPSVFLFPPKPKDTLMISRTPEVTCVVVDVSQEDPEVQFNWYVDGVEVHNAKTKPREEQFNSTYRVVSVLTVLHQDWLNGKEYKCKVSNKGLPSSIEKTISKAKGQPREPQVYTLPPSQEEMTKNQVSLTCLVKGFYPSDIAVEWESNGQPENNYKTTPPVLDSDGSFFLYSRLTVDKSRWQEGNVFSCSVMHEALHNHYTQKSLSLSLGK
light: B11 light
notes: also called huAb 0301-L0H0; FPA008
B13: huAb3 (antibody, human IgG4 S228P, kappa)
heavy: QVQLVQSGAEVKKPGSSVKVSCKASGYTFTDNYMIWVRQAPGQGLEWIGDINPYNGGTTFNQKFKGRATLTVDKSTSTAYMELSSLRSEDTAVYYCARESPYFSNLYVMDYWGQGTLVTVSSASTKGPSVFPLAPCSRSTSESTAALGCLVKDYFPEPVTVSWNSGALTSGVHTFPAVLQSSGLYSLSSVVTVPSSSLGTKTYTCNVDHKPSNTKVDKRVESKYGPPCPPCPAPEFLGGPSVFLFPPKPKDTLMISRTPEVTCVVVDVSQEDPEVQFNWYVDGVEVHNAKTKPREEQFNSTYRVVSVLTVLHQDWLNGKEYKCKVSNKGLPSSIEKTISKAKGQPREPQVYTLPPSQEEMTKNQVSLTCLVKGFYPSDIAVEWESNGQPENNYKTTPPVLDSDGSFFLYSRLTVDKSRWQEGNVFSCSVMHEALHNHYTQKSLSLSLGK
light: B11 light
notes: also called huAb 0301-L0H2; h0301-H2 / h0301-L0
B14: huAb6 (antibody, human IgG4 S228P, kappa)
heavy: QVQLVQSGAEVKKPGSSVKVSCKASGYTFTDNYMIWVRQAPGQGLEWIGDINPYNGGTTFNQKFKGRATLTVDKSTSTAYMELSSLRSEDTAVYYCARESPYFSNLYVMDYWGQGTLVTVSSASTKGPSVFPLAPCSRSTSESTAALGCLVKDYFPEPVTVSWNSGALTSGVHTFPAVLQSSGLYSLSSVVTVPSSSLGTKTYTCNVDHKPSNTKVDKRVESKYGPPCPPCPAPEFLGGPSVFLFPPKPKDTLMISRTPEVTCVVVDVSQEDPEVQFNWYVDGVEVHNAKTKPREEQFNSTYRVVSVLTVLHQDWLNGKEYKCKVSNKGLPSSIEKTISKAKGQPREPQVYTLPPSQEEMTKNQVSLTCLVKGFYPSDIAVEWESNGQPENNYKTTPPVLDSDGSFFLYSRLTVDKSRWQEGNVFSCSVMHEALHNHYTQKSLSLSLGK
light: B11 light with E1N
notes: also called huAb 0301-L1H2; h0301-H2 / h0301-L1
B15: huAb4 (antibody, human IgG4 S228P, kappa)
heavy: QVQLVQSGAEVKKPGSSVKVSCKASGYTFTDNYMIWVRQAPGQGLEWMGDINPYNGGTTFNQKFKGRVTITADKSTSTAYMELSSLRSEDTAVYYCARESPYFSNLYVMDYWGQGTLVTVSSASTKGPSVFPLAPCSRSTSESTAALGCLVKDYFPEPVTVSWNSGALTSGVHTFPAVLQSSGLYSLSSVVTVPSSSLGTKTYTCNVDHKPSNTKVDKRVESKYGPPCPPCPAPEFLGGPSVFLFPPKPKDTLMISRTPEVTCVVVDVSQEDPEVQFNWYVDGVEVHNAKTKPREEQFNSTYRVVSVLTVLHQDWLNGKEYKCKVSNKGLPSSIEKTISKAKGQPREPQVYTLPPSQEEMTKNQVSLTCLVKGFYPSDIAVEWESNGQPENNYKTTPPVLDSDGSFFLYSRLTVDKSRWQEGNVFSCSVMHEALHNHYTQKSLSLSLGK
light: B11 light with E1N
notes: also called huAb 0301-L1H0; h0301-H0 / h0301-L1
B16: huAb5 (antibody, human IgG4 S228P, kappa)
heavy: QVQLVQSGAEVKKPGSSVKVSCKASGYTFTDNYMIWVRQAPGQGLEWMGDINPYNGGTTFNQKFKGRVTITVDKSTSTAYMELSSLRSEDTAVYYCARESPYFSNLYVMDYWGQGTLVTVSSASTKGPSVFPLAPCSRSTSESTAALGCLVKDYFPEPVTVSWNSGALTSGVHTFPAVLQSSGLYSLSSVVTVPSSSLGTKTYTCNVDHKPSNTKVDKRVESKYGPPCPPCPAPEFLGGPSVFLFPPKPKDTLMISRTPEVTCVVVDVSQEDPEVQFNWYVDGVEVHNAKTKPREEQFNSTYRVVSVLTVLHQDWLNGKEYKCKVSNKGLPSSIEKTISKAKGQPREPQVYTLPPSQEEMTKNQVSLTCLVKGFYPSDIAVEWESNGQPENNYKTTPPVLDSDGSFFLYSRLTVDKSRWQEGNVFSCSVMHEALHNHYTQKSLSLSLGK
light: B11 light with E1N
notes: also called huAb 0301-L1H1; h0301-H1 / h0301-L1
B17: nivolumab (antibody, human IgG4 S228P, kappa, V domains shown)
VH: QVQLVESGGGVVQPGRSLRLDCKASGITFSNSGMHWVRQAPGKGLEWVAVIWYDGSKRYYADSVKGRFTISRDNSKNTLFLQMNSLRAEDTAVYYCATNDDYWGQGTLVTVSS
VL: EIVLTQSPATLSLSPGERATLSCRASQSVSSYLAWYQQKPGQAPRLLIYDASNRATGIPARFSGSGSGTDFTLTISSLEPEDFAVYYCQQSSNWPRTFGQGTKVEIKR
notes: Fully human IgG4 (S228P); also called Opdivo; 5C4

The target of one assay is T1, mouse CSF1R ECD. Put plainly: binding test as described in WO 2011/140249.
Turning to B1, the binding result is “no binding”.
On the same count and under the same terms, the result for B2 reads “no binding”; that for B3, “no binding”; that for B4, “no binding”.
Regarding B5, the binding result was “no binding”.
As to B6, the binding result is “no binding”.
Same read-out and setting: in the case of B7 it was “no binding”; in that of B8, “no binding”; in that of B9, “no binding”.
Still for that read-out and setting: in the case of B10 it was “no binding”; in that of B11, “no binding”; in that of B12, “no binding”.
Same read-out and setting: in the case of B13 it was “no binding”.
Take B14: the binding result was “no binding”.
Same read-out and setting: in the case of B15 it was “no binding”.
For B16, the binding result was “no binding”.

For another assay, the target named is T2, cynomolgus monkey CSF1R ECD. Description: binding test as described in WO 2011/140249.
As to B1, the binding result is “binds”.
As for B2, the binding result is “binds”.
Still for that read-out and setting: the result for B3 reads “binds”; that for B4, “binds”; that for B5, “binds”.
Same read-out and setting: the result for B6 reads “binds”; that for B7, “binds”; that for B8, “binds”.
Still for that read-out and setting: in the case of B9 it was “binds”; in that of B10, “binds”.
For the molecule B11, the binding result is “binds”.
In the case of B12, the binding result is reported as “binds”.
Same read-out and setting: in the case of B13 it was “binds”; in that of B14, “binds”; in that of B15, “binds”.
Same read-out and setting: the result for B16 reads “binds”.

Another assay addresses T3, rat PD-1. Description: FACS analysis. Background: Flow cytometry measures light scatter and fluorescence of single cells or particles in a stream.
As to B17, the binding result is recorded as “no binding”.
